Reference: US20210130436A1 (published 2021)
Numbering of substitutions follows the chain as printed. In names and notes the source's numbering stands.

Experiments:
CD226 [1] = target: T1, CD226 (Homo sapiens (Human), UniProt Q15762 19-336); experiment: flow cytometry on CD226-transfected Expi293 cells
T1 construct: also called CD226 tfxn
T1 sequence: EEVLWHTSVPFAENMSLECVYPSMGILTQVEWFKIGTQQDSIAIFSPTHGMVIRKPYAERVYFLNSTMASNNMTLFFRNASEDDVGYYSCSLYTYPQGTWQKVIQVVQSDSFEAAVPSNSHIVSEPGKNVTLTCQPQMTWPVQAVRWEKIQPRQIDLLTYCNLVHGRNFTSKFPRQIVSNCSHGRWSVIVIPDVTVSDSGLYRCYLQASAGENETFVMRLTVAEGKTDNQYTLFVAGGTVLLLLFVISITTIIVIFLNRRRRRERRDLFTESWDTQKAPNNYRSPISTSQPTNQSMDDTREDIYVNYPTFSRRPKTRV

CD96 [2] = target: T2, CD96 (UniProt P40200 22-585, limits assumed); experiment: flow cytometry on CD96-expressing cells
T2 construct: whole, on cells
T2 sequence (looked up): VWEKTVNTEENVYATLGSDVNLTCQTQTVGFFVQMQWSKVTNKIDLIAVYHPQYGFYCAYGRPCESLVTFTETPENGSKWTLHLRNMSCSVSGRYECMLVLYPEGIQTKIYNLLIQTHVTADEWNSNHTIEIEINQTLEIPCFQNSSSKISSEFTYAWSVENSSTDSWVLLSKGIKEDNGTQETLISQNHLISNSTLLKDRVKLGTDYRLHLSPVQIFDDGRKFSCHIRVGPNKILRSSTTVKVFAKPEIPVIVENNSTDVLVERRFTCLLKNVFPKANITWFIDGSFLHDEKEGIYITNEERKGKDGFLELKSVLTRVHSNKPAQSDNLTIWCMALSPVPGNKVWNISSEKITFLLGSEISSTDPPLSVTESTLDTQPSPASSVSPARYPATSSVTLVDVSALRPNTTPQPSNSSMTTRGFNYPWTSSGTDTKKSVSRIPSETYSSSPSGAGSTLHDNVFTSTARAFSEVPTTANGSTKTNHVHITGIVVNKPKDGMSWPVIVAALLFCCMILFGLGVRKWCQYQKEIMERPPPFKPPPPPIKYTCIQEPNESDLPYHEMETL

CD226 [3] = target: T1, CD226; experiment: flow cytometry on CD226-transfected Expi293 cells; reference itself
CD96 [4] = target: T2, CD96; experiment: flow cytometry on CD96-expressing cells; reference itself
TIGIT [5] = target: T3, TIGIT (Homo sapiens (Human), UniProt Q495A1 23-244); experiment: flow cytometry on TIGIT-transfected Expi293 cells
T3 construct: also called TIGIT tfxn
T3 sequence: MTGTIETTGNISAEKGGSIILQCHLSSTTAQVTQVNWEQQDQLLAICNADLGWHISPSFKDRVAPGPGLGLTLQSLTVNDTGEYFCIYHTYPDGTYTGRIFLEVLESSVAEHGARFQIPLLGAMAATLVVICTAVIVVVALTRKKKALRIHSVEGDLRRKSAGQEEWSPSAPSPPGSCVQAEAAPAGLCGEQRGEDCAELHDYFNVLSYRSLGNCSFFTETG

TIGIT [6] = target: T3, TIGIT; experiment: flow cytometry on TIGIT-transfected Expi293 cells; reference itself
TIGIT [7] = target: T4, TIGIT (UniProt Q495A1 22-244); experiment: flow cytometry on cells expressing TIGIT, Fc fusion at 100 nM
T4 construct: whole, on cells
T4 sequence (looked up): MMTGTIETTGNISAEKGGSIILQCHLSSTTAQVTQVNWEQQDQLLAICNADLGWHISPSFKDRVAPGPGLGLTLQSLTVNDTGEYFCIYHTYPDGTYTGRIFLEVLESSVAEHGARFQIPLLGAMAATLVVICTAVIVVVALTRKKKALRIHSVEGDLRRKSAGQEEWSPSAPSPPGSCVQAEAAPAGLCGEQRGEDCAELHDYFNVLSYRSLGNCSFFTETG

TIGIT [8] = target: T4, TIGIT; experiment: flow cytometry, MFI ratio to wildtype CD155 ECD-Fc, TIGIT cells
TIGIT [9] = target: T5, TIGIT (UniProt Q495A1 22-244); experiment: flow cytometry, Fc fusion at 25 nM on cells expressing TIGIT
T5 construct: whole, on cells; Expressed on transfected cells
T5 sequence (looked up): T4 sequence (looked up)

[10] = target: T6, human PD-L1, full length, expressed on transfected HEK293 cells (human, UniProt Q9NZQ7 19-290); experiment: flow cytometry, HEK293 cells transfected with human PD-L1
T6 construct: Full-length surface expression construct from Genscript; also called CD274; B7-H1

TIGIT [11] = target: T7, TIGIT (Homo sapiens (Human), UniProt Q495A1 23-244); experiment: flow cytometry, TIGIT-transfected Expi293 cells
T7 construct: Expressed on transfected Expi293 cells; also called TIGIT tfxn
T7 sequence: T3 sequence

CD226 [12] = target: T8, CD226 (Homo sapiens (Human), UniProt Q15762 19-336); experiment: flow cytometry, CD226-transfected Expi293 cells
T8 construct: Expressed on transfected cells
T8 sequence: T1 sequence

[13] = target: T9, human CD28, full length, expressed on transfected HEK293 cells (human, UniProt P10747 19-220); experiment: flow cytometry, HEK293 cells transfected with human CD28
T9 construct: Full-length surface expression construct from Genscript

T6 sequence (Q9NZQ7 19-290): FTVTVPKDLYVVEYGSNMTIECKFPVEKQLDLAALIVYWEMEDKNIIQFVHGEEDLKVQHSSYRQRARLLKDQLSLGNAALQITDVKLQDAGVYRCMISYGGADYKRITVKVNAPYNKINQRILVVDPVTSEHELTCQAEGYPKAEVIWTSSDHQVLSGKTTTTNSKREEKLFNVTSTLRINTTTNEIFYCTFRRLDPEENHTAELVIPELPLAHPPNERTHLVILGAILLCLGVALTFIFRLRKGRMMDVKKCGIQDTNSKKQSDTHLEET

B1: wild-type CD155 IgV-Fc (Fc fusion, not shown: a dimerising Fc or GST)
chain: WPPPGTGDVVVQAPTQVPGFLGDSVTLPCYLQVPNMEVTHVSQLTWARHGESGSMAVFHQTQGPSYSESKRLEFVAARLGAELRNASLRMFGLRVEDEGNYTCLFVTFPQGSRSVDIWLRVL
MFI (CD226 [1]): 3720 MFI | MFI (CD96 [2]): 3080 MFI | MFI parental ratio (CD226 [3]): 1 fold | MFI parental ratio (CD96 [4]): 1 fold | MFI (TIGIT [5]): 2720 MFI | MFI parental ratio (TIGIT [6]): 1 fold

B2: CD155 IgV Fc (Fc fusion, not shown: a dimerising Fc or GST)
chain: B1 chain
MFI at 100 nM (TIGIT [7]): 4690 MFI | Fold ↑ to WT ECD (TIGIT [8]): 0.01 fold

B3: variant CD155 IgV-Fc V9L/V11M/P18S/N35S/S54G/Q62K/L79P/L104M/T107M/V115M (Fc fusion, not shown: a dimerising Fc or GST)
chain: B1 chain with V9L, V11M, P18S, N35S, S54G, Q62K, L79P, L104M, T107M, V115M
notes: also called V9L/V11M/P18S/N355/S54G/Q62K/L79P/L104M/T107M/V115M
MFI at 25 nM (TIGIT [9]): 3000 MFI

B4: variant CD80 IgV-Fc E35G/K54E/A71D/L72P (Fc fusion)
chain: VIHVTKEVKEVATLSCGHNVSVEELAQTRIYWQKGKKMVLTMMSGDMNIWPEYENRTIFDITNNLSIVILDPRPSDEGTYECVVLKYEKDAFKREHLAEVTLSVKAD
notes: not shown: which one is
MFI at 22.2 nM [10]: 1580 MFI

B5: variant CD112 IgV-Fc S118Y (Fc fusion)
chain: QDVRVQVLPEVRGQLGGTVELPCHLLPPVPGLYISLVTWQRPDAPANHQNVAAFHPKMGPSFPSPKPGSERLSFVSAKQSTGQDTEAELQDATLALHGLTVEDEGNYTCEFATFPKGYVRGMTWLRV
notes: IgV-Fc fusion; not shown: linker and Fc
MFI (TIGIT [11]): 2920 MFI | MFI (CD226 [12]): 2000 MFI

B6: WT CD80 ECD-Fc (inert) (Fc fusion, not shown: a dimerising Fc or GST)
chain: VIHVTKEVKEVATLSCGHNVSVEELAQTRIYWQKEKKMVLTMMSGDMNIWPEYKNRTIFDITNNLSIVILALRPSDEGTYECVVLKYEKDAFKREHLAEVTLSVKADFPTPSISDFEIPTSNIRRIICSTSGGFPEPHLSWLENGEELNAINTTVSQDPETELYAVSSKLDFNMTTNHSFMCLIKYGHLRVNQTFNWNTTKQEHFPDN
notes: also called wild-type CD80-ECD-Fc (inert)
MFI at 66.6 nM [13]: 3070 MFI
